Measurements: PMC4499121

T1: Interleukin 10 receptor alpha chain, Fc fusion (human, UniProt Q13651 22-235)
T1 sequence: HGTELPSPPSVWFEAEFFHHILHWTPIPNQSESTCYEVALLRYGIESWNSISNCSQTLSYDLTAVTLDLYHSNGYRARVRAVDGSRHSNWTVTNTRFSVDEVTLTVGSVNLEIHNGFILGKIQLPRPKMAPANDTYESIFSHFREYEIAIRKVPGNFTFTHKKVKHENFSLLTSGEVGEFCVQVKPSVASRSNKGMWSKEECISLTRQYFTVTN


Columns and labels:
[1] = target: T1, Interleukin 10 receptor alpha chain, Fc …; test: double filter binding; text: mutant with highest change in affinity; Fig 3D legend gives that to Mutant 2; Binding buffer (composition and pH not given), 37 C, 5' 32P RNA with a range of protein concentrations, nitrocellulose/nylon double filter; Kd = protein concent
[2] = target: T1, Interleukin 10 receptor alpha chain, Fc …; test: double filter binding; improved relative to cluster 1 seed; Binding buffer (composition and pH not given), 37 C, 5' 32P RNA with a range of protein concentrations, nitrocellulose/nylon double filter; Kd = protein concent

Binder	Kd [1] [nM]	binding result [2]
cluster 1 Mutant 1 (ssRNA, DuraScribe IVT transcript (2'-F pyrimidines implied by the kit, not stated)) RNA: GGGAGAGAGGAAGAGGGAUGGGUAACACUCGAUUCUCCUAGCCCUCUAGAAAUUCCCCUCCCCGACGACUCGCUGAGAUCGAGA	27	–
cluster 1 Mutant 2 (ssRNA, DuraScribe IVT transcript (2'-F pyrimidines implied by the kit, not stated)) RNA: GGGAGAGAGGAAGAGGGAUGGGUAACACUCGAUUCUCCUAUCCCGCUAGAAAUUCCCCUCCCCGACGACUCGCUGAGAUCGAGA	–	binds
